According to IntAct's records for PubMed 31515488:

B1: Zinc finger CCHC domain-containing protein 10 (Homo sapiens), Q8TBK6 (parent)
chain: MATPMHRLIARRQAFDTELQPVKTFWILIQPSIVISEANKQHVRCQKCLEFGHWTYECTGKRKYLHRPSRTAELKKALKEKENRLLLQQSIGETNVERKAKKKRSKSVTSSSSSSSDSSASDSSSESEETSTSSSSEDSDTDESSSSSSSSASSTTSSSSSDSDSDSSSSSSSSTSTDSSSDDEPPKKKKKK
partner: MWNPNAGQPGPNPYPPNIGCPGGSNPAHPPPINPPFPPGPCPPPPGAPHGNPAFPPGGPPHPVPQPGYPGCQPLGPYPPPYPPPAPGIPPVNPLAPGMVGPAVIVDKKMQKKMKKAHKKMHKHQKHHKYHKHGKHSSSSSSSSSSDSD
B2: Pre-B-cell leukemia transcription factor 4 (Homo sapiens), Q9BYU1 (parent)
chain: MAAPPRPAPSPPAPRRLDTSDVLQQIMAITDQSLDEAQARKHALNCHRMKPALFSVLCEIKEKTVVSIRGIQDEDPPDAQLLRLDNMLLAEGVCRPEKRGRGGAVARAGTATPGGCPNDNSIEHSDYRAKLSQIRQIYHSELEKYEQACREFTTHVTNLLQEQSRMRPVSPKEIERMVGAIHGKFSAIQMQLKQSTCEAVMTLRSRLLDARRKRRNFSKQATEVLNEYFYSHLNNPYPSEEAKEELARKGGLTISQVSNWFGNKRIRYKKNMGKFQEEATIYTGKTAVDTTEVGVPGNHASCLSTPSSGSSGPFPLPSAGDAFLTLRTLASLQPPPGGGCLQSQAQGSWQGATPQPATASPAGDPGSINSSTSN
partner: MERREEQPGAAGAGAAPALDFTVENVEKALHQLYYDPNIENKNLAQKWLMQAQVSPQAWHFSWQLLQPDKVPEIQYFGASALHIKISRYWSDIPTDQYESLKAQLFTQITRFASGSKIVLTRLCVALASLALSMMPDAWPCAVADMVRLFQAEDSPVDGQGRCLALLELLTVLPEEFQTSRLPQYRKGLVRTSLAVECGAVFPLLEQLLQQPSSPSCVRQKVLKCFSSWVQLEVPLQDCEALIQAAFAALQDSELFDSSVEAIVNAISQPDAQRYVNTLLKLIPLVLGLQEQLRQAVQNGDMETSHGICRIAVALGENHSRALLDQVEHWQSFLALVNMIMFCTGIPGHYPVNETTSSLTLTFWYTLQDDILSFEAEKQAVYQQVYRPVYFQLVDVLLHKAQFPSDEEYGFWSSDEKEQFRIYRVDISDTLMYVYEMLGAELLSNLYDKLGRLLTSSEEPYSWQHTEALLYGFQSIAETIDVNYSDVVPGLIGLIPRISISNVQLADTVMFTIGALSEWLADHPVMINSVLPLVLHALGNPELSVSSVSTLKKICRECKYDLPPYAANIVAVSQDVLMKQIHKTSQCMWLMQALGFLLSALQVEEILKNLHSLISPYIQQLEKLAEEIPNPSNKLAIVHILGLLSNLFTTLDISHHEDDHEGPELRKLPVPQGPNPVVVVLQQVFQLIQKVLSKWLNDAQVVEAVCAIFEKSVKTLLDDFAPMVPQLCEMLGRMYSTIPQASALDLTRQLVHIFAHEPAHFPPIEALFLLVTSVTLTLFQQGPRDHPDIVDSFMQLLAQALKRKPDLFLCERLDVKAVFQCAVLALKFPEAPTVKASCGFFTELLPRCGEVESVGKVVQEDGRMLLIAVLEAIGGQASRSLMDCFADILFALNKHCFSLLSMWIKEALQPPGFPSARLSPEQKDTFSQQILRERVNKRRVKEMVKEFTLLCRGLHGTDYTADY
B3: Nebulette (Homo sapiens), O76041 (parent)
chain: MRVPVFEDIKDETEEEKIGEEENEEDQVFYKPVIEDLSMELARKCTELISDIRYKEEFKKSKDKCTFVTDSPMLNHVKNIGAFISEAKYKGTIKADLSNSLYKRMPATIDSVFAGEVTQLQSEVAYKQKHDAAKGFSDYAHMKEPPEVKHAMEVNKHQSNISYRKDVQDTHTYSAELDRPDIKMATQISKIISNAEYKKGQGIMNKEPAVIGRPDFEHAVEASKLSSQIKYKEKFDNEMKDKKHHYNPLESASFRQNQLAATLASNVKYKKDIQNMHDPVSDLPNLLFLDHVLKASKMLSGREYKKLFEENKGMYHFDADAVEHLHHKGNAVLQSQVKYKEEYEKNKGKPMLEFVETPSYQASKEAQKMQSEKVYKEDFEKEIKGRSSLDLDKTPEFLHVKYITNLLREKEYKKDLENEIKGKGMELNSEVLDIQRAKRASEMASEKEYKKDLESIIKGKGMQAGTDTLEMQHAKKAAEIASEKDYKRDLETEIKGKGMQVSTDTLDVQRAKKASEMASQKQYKKDLENEIKGKGMQVSMDIPDILRAKRTSEIYSQRKYKDEAEKMLSNYSTIADTPEIQRIKTTQQNISAVFYKKEVGAGTAVKDSPEIERVKKNQQNISSVKYKEEIKHATAISDPPELKRVKENQKNISNLQYKEQNYKATPVSMTPEIERVRRNQEQLSAVKYKGELQRGTAISDPPELKRAKENQKNISNVYYRGQLGRATTLSVTPEMERVKKNQENISSVKYTQDHKQMKGRPSLILDTPAMRHVKEAQNHISMVKYHEDFEKTKGRGFTPVVDDPVTERVRKNTQVVSDAAYKGVHPHIVEMDRRPGIIVDLKVWRTDPGSIFDLDPLEDNIQSRSLHMLSEKASHYRRHWSRSHSSSTFGTGLGDDRSEISEIYPSFSCCSEVTRPSDEGAPVLPGAYQQSHSQGYGYMHQTSVSSMRSMQHSPNLRTYRAMYDYSAQDEDEVSFRDGDYIVNVQPIDDGWMYGTVQRTGRTGMLPANYIEFVN
partner: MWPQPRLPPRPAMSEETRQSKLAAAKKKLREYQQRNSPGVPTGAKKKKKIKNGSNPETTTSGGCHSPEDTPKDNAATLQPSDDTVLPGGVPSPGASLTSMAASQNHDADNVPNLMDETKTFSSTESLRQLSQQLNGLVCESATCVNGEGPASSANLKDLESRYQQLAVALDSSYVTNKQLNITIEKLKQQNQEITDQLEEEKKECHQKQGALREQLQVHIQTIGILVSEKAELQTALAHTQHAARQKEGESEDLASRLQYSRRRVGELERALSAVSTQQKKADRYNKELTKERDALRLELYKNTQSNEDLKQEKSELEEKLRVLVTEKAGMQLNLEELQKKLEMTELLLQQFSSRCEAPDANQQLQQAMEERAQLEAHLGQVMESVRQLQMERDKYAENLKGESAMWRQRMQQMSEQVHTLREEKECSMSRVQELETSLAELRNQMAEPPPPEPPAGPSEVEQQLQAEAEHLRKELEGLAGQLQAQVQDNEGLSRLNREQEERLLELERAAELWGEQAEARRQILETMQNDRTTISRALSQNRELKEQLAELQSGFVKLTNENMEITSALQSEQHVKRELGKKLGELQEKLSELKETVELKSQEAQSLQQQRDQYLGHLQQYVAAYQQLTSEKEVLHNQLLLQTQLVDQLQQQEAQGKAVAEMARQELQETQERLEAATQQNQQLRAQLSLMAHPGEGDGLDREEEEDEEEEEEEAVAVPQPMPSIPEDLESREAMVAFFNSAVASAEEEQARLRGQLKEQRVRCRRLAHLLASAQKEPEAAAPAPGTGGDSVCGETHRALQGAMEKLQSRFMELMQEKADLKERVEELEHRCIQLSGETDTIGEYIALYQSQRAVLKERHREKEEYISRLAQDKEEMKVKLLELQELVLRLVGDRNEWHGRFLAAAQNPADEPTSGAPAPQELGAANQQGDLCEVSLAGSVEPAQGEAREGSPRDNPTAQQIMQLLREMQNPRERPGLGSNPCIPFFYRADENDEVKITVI
B4: Caspase recruitment domain-containing protein 9 (Homo sapiens), Q9H257 (parent)
chain: MSDYENDDECWSVLEGFRVTLTSVIDPSRITPYLRQCKVLNPDDEEQVLSDPNLVIRKRKVGVLLDILQRTGHKGYVAFLESLELYYPQLYKKVTGKEPARVFSMIIDASGESGLTQLLMTEVMKLQKKVQDLTALLSSKDDFIKELRVKDSLLRKHQERVQRLKEECEAGSRELKRCKEENYDLAMRLAHQSEEKGAALMRNRDLQLEIDQLKHSLMKAEDDCKVERKHTLKLRHAMEQRPSQELLWELQQEKALLQARVQELEASVQEGKLDRSSPYIQVLEEDWRQALRDHQEQANTIFSLRKDLRQGEARRLRCMEEKEMFELQCLALRKDSKMYKDRIEAILLQMEEVAIERDQAIATREELHAQHARGLQEKDALRKQVRELGEKADELQLQVFQCEAQLLAVEGRLRRQQLETLVLSSDLEDGSPRRSQELSLPQDLEDTQLSDKGCLAGGGSPKQPFAALHQEQVLRNPHDAGLSSGEPPEKERRRLKESFENYRRKRALRKMQKGWRQGEEDRENTTGSDNTDTEGS
partner: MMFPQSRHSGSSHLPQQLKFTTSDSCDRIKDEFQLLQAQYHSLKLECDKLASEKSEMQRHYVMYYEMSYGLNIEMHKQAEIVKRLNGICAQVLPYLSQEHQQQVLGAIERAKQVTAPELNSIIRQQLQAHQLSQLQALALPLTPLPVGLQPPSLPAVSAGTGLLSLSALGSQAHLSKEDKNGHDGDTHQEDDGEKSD
B5: Nebulette (Homo sapiens), O76041 (parent)
chain: B3 chain
partner: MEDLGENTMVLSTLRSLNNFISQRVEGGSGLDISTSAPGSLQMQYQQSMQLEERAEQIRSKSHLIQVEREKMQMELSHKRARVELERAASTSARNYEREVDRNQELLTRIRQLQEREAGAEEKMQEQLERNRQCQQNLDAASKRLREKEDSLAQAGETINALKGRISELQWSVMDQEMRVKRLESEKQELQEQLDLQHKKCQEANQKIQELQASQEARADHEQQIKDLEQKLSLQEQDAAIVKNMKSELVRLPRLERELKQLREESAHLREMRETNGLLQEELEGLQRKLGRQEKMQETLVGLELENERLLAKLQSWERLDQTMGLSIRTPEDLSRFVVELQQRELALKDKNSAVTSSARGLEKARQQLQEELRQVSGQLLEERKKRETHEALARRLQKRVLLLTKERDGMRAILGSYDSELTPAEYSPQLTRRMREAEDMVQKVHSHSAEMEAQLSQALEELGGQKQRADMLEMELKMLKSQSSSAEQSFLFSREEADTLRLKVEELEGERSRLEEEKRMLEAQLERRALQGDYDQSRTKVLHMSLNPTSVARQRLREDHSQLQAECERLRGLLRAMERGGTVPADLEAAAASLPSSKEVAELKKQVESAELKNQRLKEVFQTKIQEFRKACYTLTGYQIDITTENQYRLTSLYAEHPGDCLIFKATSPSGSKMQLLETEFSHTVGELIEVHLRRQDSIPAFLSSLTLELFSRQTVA
B6: Protein FAM9B (Homo sapiens), Q8IZU0 (parent)
chain: MAAWGKKHAGKDPVRDECEERNRFTETREEDVTDEHGEREPFAETDEHTGANTKKPEDTAEDLTAKRKRMKMDKTCSKTKNKSKHALRKKQLKRQKRDYIHSLKLLNVLEEYITDEQKEEEEEEGEEEELIRIFQEQQKKWQQYRSVRRERLKEMKLLRDQFVKALEDFEDLCDRVFSDEDSELDN
partner: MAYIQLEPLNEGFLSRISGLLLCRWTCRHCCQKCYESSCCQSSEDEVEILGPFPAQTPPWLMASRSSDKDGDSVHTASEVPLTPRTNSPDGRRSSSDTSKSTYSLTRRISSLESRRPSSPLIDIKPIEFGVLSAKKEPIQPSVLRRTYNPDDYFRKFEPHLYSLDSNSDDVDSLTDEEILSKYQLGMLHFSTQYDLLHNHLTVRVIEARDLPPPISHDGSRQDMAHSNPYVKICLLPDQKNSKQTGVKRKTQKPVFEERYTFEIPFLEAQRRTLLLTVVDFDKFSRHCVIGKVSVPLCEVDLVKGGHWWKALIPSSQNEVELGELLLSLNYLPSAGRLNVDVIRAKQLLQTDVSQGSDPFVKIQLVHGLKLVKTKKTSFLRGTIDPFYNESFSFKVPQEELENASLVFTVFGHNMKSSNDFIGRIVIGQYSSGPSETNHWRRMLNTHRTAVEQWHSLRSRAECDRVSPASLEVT
B7: Protein LDOC1 (Homo sapiens), O95751 (parent)
chain: MVDELVLLLHALLMRHRALSIENSQLMEQLRLLVCERASLLRQVRPPSCPVPFPETFNGESSRLPEFIVQTASYMLVNENRFCNDAMKVAFLISLLTGEAEEWVVPYIEMDSPILGDYRAFLDEMKQCFGWDDDEDDDDEEEEDDY
partner: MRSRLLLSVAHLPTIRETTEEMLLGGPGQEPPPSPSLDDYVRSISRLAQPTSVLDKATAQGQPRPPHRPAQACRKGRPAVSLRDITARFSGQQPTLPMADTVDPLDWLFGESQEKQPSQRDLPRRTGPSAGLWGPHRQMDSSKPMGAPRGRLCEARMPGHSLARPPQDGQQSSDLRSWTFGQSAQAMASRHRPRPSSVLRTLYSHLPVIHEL

Variants of: B1
Settings: with prr13_human PRR13, Q9NZ81

effect of a mutation on the interaction | Variant
with no effect | S153P

Variants of: B2
Settings: with ipo13_human IPO13, O94829

effect of a mutation on the interaction | Variant
with no effect | T154M
with no effect | R327Q
with no effect | T283M

Variants of: B3
Settings: with goga2_human GOLGA2, Q08379

effect of a mutation on the interaction | Variant
with no effect | R613Q
with no effect | M351V

Variants of: B4
Settings: with tle5_human TLE5, Q08117

effect of a mutation on the interaction | Variant
with no effect | R173H

Variants of: B5
Settings: with md1l1_human MAD1L1, Q9Y6D9

effect of a mutation on the interaction | Variant
with no effect | R613Q
with no effect | M351V

Variants of: B6
Settings: with syt17_human SYT17, Q9BSW7

effect of a mutation on the interaction | Variant
with no effect | R23H

Variants of: B7
Settings: with depp1_human DEPP1, Q9NTK1

effect of a mutation on the interaction | Variant
disrupting interaction strength | L12H
